Consider 1 protein from paper PMC4297519 (Nature, 2014).

The series concerns the molecule itself. The experiment in a line: crystal structure.

B1: human CEACAM1 IgV domain (GST tag removed) (domain or fragment)
chain: QLTTESMPFNVAEGKEVLLLVHNLPQQLFGYSWYKGERVDGNRQIVGYAIGTQQATPGPANSGRETIYPNASLLIQNVTQNDTGFYTLQVIKSDLVNEEATGQFHVY
Consider B1, for which the binding result is reported as “binds”.
